We go through two proteins from doi:10.1101/2021.09.16.460650 (bioRxiv, 2021).

The series deals with the molecule itself. The experiment in a line: non-reducing SDS-PAGE with western blot. In general terms: In western blotting, separated proteins are transferred to a membrane and probed.

B1: N-terminally arginylated calreticulin (natural protein, human (endogenous in DLD-1), UniProt P27797 18-417, looked up)
chain: REPAVYFKEQFLDGDGWTSRWIESKHKSDFGKFVLSSGKFYGDEEKDKGLQTSQDARFYALSASFEPFSNKGQTLVVQFTVKHEQNIDCGGGYVKLFPNSLDQTDMHGDSEYNIMFGPDICGPGTKKVHVIFNYKGKNVLINKDIRCKDDEFTHLYTLIVRPDNTYEVKIDNSQVESGSLEDDWDFLPPKKIKDPDASKPEDWDERAKIDDPTDSKPEDWDKPEHIPDPDAKKPEDWDEEMDGEWEPPVIQNPEYKGEWKPRQIDNPDYKGTWIHPEIDNPEYSPDPSIYAYDNFGVLGLDLWQVKSGTIFDNFLITNDEAYAEEFGNETWGVTKAAEKQMKDKQDEEQRLKEEEEDKKRKEEEEAEDKEDDEDKDEDEEDEEDKEEDEEEDVPGQAKDEL
modifications: arginyl group added at the mature (signal sequence removed) NH2-terminus, Glu-18
In the case of B1, the stoichiometry N (commonly the number of molecules, sites or subunits per partner or assembly) turned out to be 2.

B2: calreticulin (natural protein, human (endogenous in DLD-1), UniProt P27797 18-417, looked up)
chain: EPAVYFKEQFLDGDGWTSRWIESKHKSDFGKFVLSSGKFYGDEEKDKGLQTSQDARFYALSASFEPFSNKGQTLVVQFTVKHEQNIDCGGGYVKLFPNSLDQTDMHGDSEYNIMFGPDICGPGTKKVHVIFNYKGKNVLINKDIRCKDDEFTHLYTLIVRPDNTYEVKIDNSQVESGSLEDDWDFLPPKKIKDPDASKPEDWDERAKIDDPTDSKPEDWDKPEHIPDPDAKKPEDWDEEMDGEWEPPVIQNPEYKGEWKPRQIDNPDYKGTWIHPEIDNPEYSPDPSIYAYDNFGVLGLDLWQVKSGTIFDNFLITNDEAYAEEFGNETWGVTKAAEKQMKDKQDEEQRLKEEEEDKKRKEEEEAEDKEDDEDKDEDEEDEEDKEEDEEEDVPGQAKDEL
With B2, the “stoichiometry N” value is 2.
